Data set [1] concerns the molecule itself. As to the kind of experiment: crystal structure; RasGRP1^CEC at 3.0 Å; hanging drop, 0.15 M sodium citrate tribasic, 22% PEG 3350, 1 mM MnCl2, 20°C; dimer generated by a crystallographic twofold axis.
Data set [2] concerns the molecule itself. Briefly: multiangle light scattering; RasGRP1^CC in solution, 30 μM to 1.5 mM monomer; data not shown.

As a reminder, the stoichiometry N is the number of molecules, sites or subunits per partner or assembly.

B1: RasGRP1^CEC (human Ras guanine nucleotide releasing protein 1, residues 50-607: REM, Cdc25, EF and C1 domains) (domain or fragment, UniProt O95267 50-607, looked up)
chain: MVSLGHLAKGASLDDLIDSCIQSFDADGNLCRSNQLLQVMLTMHRIVISSAELLQKVITLYKDALAKNSPGLCLKICYFVRYWITEFWVMFKMDASLTDTMEEFQELVKAKGEELHCRLIDTTQINARDWSRKLTQRIKSNTSKKRKVSLLFDHLEPEELSEHLTYLEFKSFRRISFSDYQNYLVNSCVKENPTMERSIALCNGISQWVQLMVLSRPTPQLRAEVFIKFIQVAQKLHQLQNFNTLMAVIGGLCHSSISRLKETSSHVPHEINKVLGEMTELLSSSRNYDNYRRAYGECTDFKIPILGVHLKDLISLYEAMPDYLEDGKVNVHKLLALYNHISELVQLQEVAPPLEANKDLVHLLTLSLDLYYTEDEIYELSYAREPRNHRAPPLTPSKPPVVVDWASGVSPKPDPKTISKHVQRMVDSVFKNYDHDQDGYISQEEFEKIAASFPFSFCVMDKDREGLISRDEITAYFMRASSIYSKLGLGFPHNFQETTYLKPTFCDNCAGFLWGVIKQGYRCKDCGMNCHKQCKDLVVFECKKRAKNPVAPTENNTS
notes: human RasGRP1 (full length 797 residues), residues 50-607, spanning the REM, Cdc25, EF and C1 domains; Crystallographic dimer; In gel filtration it forms dimers and higher order oligomers, depending on concentration; The structural model spans residues 53-593; 186-192 and 437-448 are not modelled; source: E. coli BL21(DE3), purified (HisTrap, tag removal with ULP1, second HisTrap, Superdex gel …)
As for B1, the binding result in data set [1] is “binds”.

B2: RasGRP1^CC (human RasGRP1 C-terminal coiled coil, residues 739-793) (domain or fragment, UniProt O95267 739-793, looked up)
chain: ELRHLRLPTYQELEQEINTLKADNDALKIQLKYAQKKIESLQLEKSNHVLAQMEQ
notes: human RasGRP1 (full length 797 residues), residues 739-793, containing the predicted coiled coil (747-789); Parallel dimeric coiled coil; The model holds residues 745-793 (molecule A) and 745-786 (molecule B); also called C-terminal oligomerization domain; source: E. coli BL21(DE3), purified (HisTrap, tag removal with ULP1, second HisTrap, Superdex gel filtration); not shown: His6, N-terminal, …
As for B2, the “stoichiometry N” value in data set [2] was 2.

The values are drawn from paper PMC3728621, “Structural analysis of autoinhibition in the Ras-specific exchange factor RasGRP1” (eLife, 2013).
